Laboratory results: paper PMC13355702

Columns and labels:
[1] = target: BcM60K (metallopeptidase domain of the Bacteroides caccae peptidase_M60 O-glycopeptidase BcM60K) (Bacteroides caccae)

| KM of cleavage of the FRET substrate (global fit of progress curves) [1] [µM] | KM of cleavage of the FRET substrate (global fit of progress curves) (BT4244) [µM] | Substance |
| --- | --- | --- |
|  | 1 | FRET substrate mNeonGreen-IgA1 hinge linker-mScarlet-I, Tn-modified (domain or fragment) |
| 2.5 |  | FRET substrate mNeonGreen-MUC5AC_R2 linker-mScarlet-I, 6SC1-modified (domain or fragment) |
| 6.2 | 2.9 | FRET substrate mNeonGreen-MUC5AC_R2 linker-mScarlet-I, C1-modified (domain or fragment) |

More lines, now with the values behind:

| Substance | KM of cleavage of the FRET substrate (global fit of progress curves) [1] [µM] | KM of cleavage of the FRET substrate (global fit of progress curves) (BT4244) [µM] |
| --- | --- | --- |
| FRET substrate mNeonGreen-MUC5AC_R2 linker-mScarlet-I, 3SC1-modified (domain or fragment) | 7.6 |  |
| FRET substrate mNeonGreen-MUC5AC_R2 linker-mScarlet-I, C2-modified (domain or fragment) | 4.5 |  |
| FRET substrate mNeonGreen-MUC2_R1 linker-mScarlet-I, Tn-modified (domain or fragment) |  | 5.6 |
| FRET substrate mNeonGreen-MUC5AC_R2 linker-mScarlet-I, Tn-modified (domain or fragment) | 7.8 | 2.9 |
